From ChEMBL document CHEMBL5649167, “The SUV4-20 inhibitor A-196 verifies a role for epigenetics in genomic integrity” (Nat Chem Biol, 2017)

Key:
[1] = system: Clc1cc2c(NC3CCCC3)nnc(-c3ccncc3)c2cc1Cl; conditions: Homo sapiens; time 2.0 hrs
[2] = system: Clc1cc2c(NC3CCCC3)nnc(-c3ccncc3)c2cc1Cl; conditions: Homo sapiens; time 2.0 hrs; remark: listed apart in the source

Histone-lysine N-methyltransferase KMT5B (Homo sapiens), Q4FZB7, sequence (Q4FZB7 whole entry): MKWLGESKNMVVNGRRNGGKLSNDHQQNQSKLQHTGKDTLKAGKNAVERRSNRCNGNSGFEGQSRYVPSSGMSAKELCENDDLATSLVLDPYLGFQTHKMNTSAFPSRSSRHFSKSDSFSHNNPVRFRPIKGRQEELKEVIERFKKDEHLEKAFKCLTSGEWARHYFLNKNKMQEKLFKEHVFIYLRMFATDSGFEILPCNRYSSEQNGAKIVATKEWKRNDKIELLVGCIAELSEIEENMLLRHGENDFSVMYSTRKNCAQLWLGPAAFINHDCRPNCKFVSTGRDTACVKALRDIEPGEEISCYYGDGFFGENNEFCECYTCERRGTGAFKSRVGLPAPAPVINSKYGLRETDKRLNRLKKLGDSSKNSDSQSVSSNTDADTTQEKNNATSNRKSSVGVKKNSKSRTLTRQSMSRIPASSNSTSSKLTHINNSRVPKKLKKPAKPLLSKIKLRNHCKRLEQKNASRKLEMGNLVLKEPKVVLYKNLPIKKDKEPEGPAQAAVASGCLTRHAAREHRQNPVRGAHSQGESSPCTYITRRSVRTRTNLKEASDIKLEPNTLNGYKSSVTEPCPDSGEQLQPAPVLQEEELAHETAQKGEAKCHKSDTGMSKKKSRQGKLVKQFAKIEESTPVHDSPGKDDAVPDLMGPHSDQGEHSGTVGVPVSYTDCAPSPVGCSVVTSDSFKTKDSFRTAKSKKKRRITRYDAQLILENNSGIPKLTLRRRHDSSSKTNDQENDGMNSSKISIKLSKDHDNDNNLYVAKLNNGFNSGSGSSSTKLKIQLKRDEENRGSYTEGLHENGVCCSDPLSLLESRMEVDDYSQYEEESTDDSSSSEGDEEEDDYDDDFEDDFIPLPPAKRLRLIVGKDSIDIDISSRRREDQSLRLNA

## Histone-lysine N-methyltransferase KMT5B (Homo sapiens), Q4FZB7
[1]
  Km: 0.0748 µM
[2]
  Km: 0.0278 µM
